Columns and labels:
[1] = target: human IL-2 (recombinant IL-2, Humanzyme) (human) (UniProt P60568); assay: SPR, human IL-2; the value repeats Table 3 (assumed off-rate limit)
[2] = target: recombinant cynomolgus monkey (Macaca fascicularis) IL-2 (cynomolgus monkey (Macaca fascicularis)) (UniProt Q29615); assay: SPR as in Example 1, cynomolgus IL-2 1-100 nM, 1:1 Langmuir or steady-state fit
[3] = target: human IL-2 (recombinant IL-2, Humanzyme) (human) (UniProt P60568); assay: SPR (Biacore T200), antibody captured on anti-mouse IgG, IL-2 injected, 25 C, 1:1 Langmuir fit
[4] = target: human IL-2 (recombinant IL-2, Humanzyme) (human) (UniProt P60568); assay: SPR (Biacore T200), antibody captured on anti-mouse IgG, IL-2 injected; calculated with the assumed off-rate limit
[5] = target: human IL-2 (recombinant IL-2, Humanzyme) (human) (UniProt P60568); assay: SPR (Biacore T200), antibody captured on anti-mouse IgG, IL-2 injected; off-rate outside the specifications of the instrument, assumed limit
d1C7/IL-2 complex = target: T1, d1C7/IL-2 complex (human, UniProt P60568 21-153); assay: SPR (Biacore T200), complex injected over biotinylated receptor on streptavidin chip
T1 construct: Non-covalent complex: IL-2 (333 nM) pre-incubated with d1C7 IgG (1000 nM) for at least 20 minutes; also called clone d1C7/IL-2 complex
T1 sequence (VH, as listed by the source limits assumed, chain 1 of 3): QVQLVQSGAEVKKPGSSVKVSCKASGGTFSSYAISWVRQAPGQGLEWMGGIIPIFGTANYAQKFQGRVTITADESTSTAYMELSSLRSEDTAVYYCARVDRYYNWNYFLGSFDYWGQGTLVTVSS
T1 sequence (VL, as listed by the source limits assumed, chain 2 of 3): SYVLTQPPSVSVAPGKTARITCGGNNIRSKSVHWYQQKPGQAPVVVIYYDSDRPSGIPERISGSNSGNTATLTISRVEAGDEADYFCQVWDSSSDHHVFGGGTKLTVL
T1 sequence (P60568 21-153 limits assumed, chain 3 of 3): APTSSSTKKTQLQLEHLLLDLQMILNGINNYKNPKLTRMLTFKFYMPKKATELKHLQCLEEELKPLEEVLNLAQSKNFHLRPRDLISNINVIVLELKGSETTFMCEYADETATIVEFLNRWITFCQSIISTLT
Description: (§1) Experiments were performed at 25° C. using a 10 μL/minute flow rate in 10 mM HEPES (pH 7.4), 150 mM NaCl and 0.005% v/v Surfactant P20 buffer. […] Data was background subtracted using the adjacent control flow cell and buffer only injections.

IL-2/F5.1.11 Fab complex = target: T2, IL-2/F5.1.11 Fab complex (human, UniProt P60568 21-153); assay: SPR (Biacore T200), 1-500 nM IL-2 pre-complexed with excess Fab over biotinylated IL-2Rα, equilibrium analysis
T2 construct: also called F5.1.11/IL-2
T2 sequence (VH, as listed by the source limits assumed, chain 1 of 3): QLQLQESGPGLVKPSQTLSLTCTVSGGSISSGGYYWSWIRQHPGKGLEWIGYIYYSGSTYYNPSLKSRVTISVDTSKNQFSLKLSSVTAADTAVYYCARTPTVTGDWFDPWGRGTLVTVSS
T2 sequence (VL, as listed by the source limits assumed, chain 2 of 3): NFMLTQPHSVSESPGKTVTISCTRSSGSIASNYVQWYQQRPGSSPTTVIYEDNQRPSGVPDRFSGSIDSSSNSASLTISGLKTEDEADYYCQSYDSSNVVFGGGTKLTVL
T2 sequence (P60568 21-153 limits assumed, chain 3 of 3): as the sequence (P60568 21-153 limits assumed, chain 3 of 3) above
Description: as §1, with “(pH7.4),” for “(pH 7.4),”, “injections. The affinity of the interaction was calculated from concentration-response relationship at equilibrium.” for “injections.”

Sequence of human IL-2 (recombinant IL-2, Humanzyme) (human) (P60568 21-153 limits assumed): as the sequence (P60568 21-153 limits assumed, chain 3 of 3) above
Sequence of recombinant cynomolgus monkey (Macaca fascicularis) IL-2 (cynomolgus monkey (Macaca fascicularis)) (Q29615 21-154 limits assumed): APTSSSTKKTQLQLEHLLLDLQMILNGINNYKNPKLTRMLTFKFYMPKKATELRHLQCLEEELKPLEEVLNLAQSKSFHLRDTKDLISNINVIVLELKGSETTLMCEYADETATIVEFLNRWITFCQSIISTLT

With “mouse anti-human IL-2 clone 5344 (clone 5344.111, BD Biosciences) (antibody)” the Kd [1] was less than 0.05 nM, the Kd [2] was greater than 50 nM and the kon [3] was 1.02e+06 M⁻¹ s⁻¹. The Kd [4] was less than 0.05 nM and the koff [5] was less than 5e-05 s⁻¹.

B1: recombinant IL-2Rβ, biotin labeled (receptor, UniProt P14784 27-240, looked up)
chain: AVNGTSQFTCFYNSRANISCVWSQDGALQDTSCQVHAWPDRRRWNQTCELLPVSQASWACNLILGAPDSQKLTTVDIVTLRVLCREGVRWRVMAIQDFKPFENLRLMAPISLQVVHVETHRCNISWEISQASHYFERHLEFEARTLSPGHTWEEAPLLTLKQKQEWICLETLTPDTQYEFQVRVKPLQGEFTTWSPWSQPLAFRTKPAALGKDT
modifications: biotin labeled (site not stated)
notes: also called CD122
B1: no binding (tested: IL-2 333 nM with IgG 1000 nM) (d1C7/IL-2 complex).

B2: recombinant IL-2Rα, biotin labeled (receptor, UniProt P01589 22-240, looked up)
chain: ELCDDDPPEIPHATFKAMAYKEGTMLNCECKRGFRRIKSGSLYMLCTGNSSHSSWDNQCQCTSSATRNTTKQVTPQPEEQKERKTTEMQSPMQPVDQASLPGHCREPPPWENEATERIYHFVVGQMVYYQCVQGYRALHRGPAESVCKMTHGKTRWTQPQLICTGEMETSQFPGEEKPQASPEGRPESETSCLVTTTDFQIQTEMAATMETSIFTTEYQ
modifications: biotin labeled (site not stated)
notes: also called IL-2α; IL-2a
For B2, the Kd (IL-2/F5.1.11 Fab complex) was 70.1 nM.

Reference: patent US20170114130A1 (University of California, published 2017)
